One protein from article PMC9652331, “Cryo-EM structures of human m^6A writer complexes” (Cell Research, 2022) can be followed below.

The data set concerns the molecule itself. In words: cross-linking; BS3 XL-MS of purified MACOM (Fig. S4a, b): 0.5 mM BS3, 50 mM HEPES pH 7.5, 100 mM KCl, 5% glycerol, 25 °C, 2 h; pLink2.

B1: Wilms' tumor 1-associated protein (WTAP), full length, N-6× His-WTAP (natural protein, human, UniProt Q15007 1-396, looked up)
chain: MTNEEPLPKKVRLSETDFKVMARDELILRWKQYEAYVQALEGKYTDLNSNDVTGLRESEEKLKQQQQESARRENILVMRLATKEQEMQECTTQIQYLKQVQQPSVAQLRSTMVDPAINLFFLKMKGELEQTKDKLEQAQNELSAWKFTPDSQTGKKLMAKCRMLIQENQELGRQLSQGRIAQLEAELALQKKYSEELKSSQDELNDFIIQLDEEVEGMQSTILVLQQQLKETRQQLAQYQQQQSQASAPSTSRTTASEPVEQSEATSKDCSRLTNGPSNGSSSRQRTSGSGFHREGNTTEDDFPSSPGNGNKSSNSSEERTGRGGSGYVNQLSAGYESVDSPTGSENSLTHQSNDTDSSHDPQEEKAVSGKGNRTVGSRHVQNGLDSSVNVQGSVL
notes: Wilms' tumor 1-associated protein (WTAP), human, full length; Stands as a homodimer in the MACOM complexes (two copies, WTAP-a and WTAP-b); No removal of the His tag is described; also called WTAP-a; WTAP-b; source: High Five insect cells, co-expressed with the other MACOM components, purified as a complex (Ni-NTA, STREP beads, SEC); not shown: 6× His, N-terminal, kept
Turning to B1, the binding result was “binds”.
